Measurements reported in article PMC8550936.

Tests used:
[1] = target: Venezuelan equine encephalitis virus (VEEV) virus-like particles (Venezuelan equine encephalitis virus, strain TC-83) (UniProt P09592); assay: cryo-EM structure
[2] = target: Venezuelan equine encephalitis virus (VEEV) virus-like particles (Venezuelan equine encephalitis virus, strain TC-83) (UniProt P09592); assay: SPR; Biacore T200; […]; 30 µl/min, 25 °C, HBS-P plus 1 mM CaCl2; global 1:1 fit; […]

Chain of LDLRAD3(D1), cleaved monomeric ectodomain of mouse low-density lipoprotein receptor class A domain-c (A2AR95 18-70): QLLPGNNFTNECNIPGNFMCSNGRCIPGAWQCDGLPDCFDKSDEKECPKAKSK
Chain of LDLRAD3(D1+D2), cleaved monomeric ectodomain of mouse LDLRAD3, domains 1 and 2 (A2AR95 18-112): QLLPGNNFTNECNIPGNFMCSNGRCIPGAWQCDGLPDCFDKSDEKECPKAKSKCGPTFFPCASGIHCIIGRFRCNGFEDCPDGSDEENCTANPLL

LDLRAD3(D1), cleaved monomeric ectodomain of mouse low-density lipoprotein receptor class A domain-c (from UniProt A2AR95 18-70) (domain or fragment)
stoichiometry N (molecules of LDLRAD3(D1) per VLP) [1]: 240

LDLRAD3(D1+D2), cleaved monomeric ectodomain of mouse LDLRAD3, domains 1 and 2 (from UniProt A2AR95 18-112) (domain or fragment)
Kd [2]: 0.05 µM
